In one assay the target is T1, human GIP receptor (human, UniProt P48546 22-466).
T1 construct: whole, on cells; also called hGIPR; hGIP-R
T1 sequence (looked up): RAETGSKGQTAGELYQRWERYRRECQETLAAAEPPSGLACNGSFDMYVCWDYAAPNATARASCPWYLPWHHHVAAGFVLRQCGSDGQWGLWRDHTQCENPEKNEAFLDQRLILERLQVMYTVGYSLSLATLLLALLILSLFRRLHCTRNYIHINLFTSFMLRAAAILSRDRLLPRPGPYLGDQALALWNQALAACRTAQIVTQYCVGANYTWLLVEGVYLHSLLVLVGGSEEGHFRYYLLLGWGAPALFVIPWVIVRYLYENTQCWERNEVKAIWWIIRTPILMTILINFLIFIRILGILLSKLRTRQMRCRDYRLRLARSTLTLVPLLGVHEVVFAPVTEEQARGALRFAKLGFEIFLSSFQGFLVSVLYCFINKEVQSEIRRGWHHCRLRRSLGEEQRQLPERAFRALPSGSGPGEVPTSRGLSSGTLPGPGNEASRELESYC
Kind of assay: [125I]-GIP competition SPA, hGIPR membranes. The procedure: The binding buffer contains 25 mM HEPES, pH 7.4, 2.5 mM CaCl₂, 1 mM MgCl₂, 0.1% (w/v) bacitracin, 0.003% (w/v) TWEEN®-20, and Roche Complete™ Protease Inhibitors without EDTA. […] Plates are sealed and mixed on a plate shaker (setting 6) for 1 minute and read with a PerkinElmer Trilux MicroBeta® scintillation counter after 2.5 to 12 hours of incubation/settling time at room temperature.
(§1) Data are analyzed using four-parameter (curve maximum, curve minimum, IC₅₀, Hill slope) nonlinear regression routines (Genedata Screener, version 12.0.4, Genedata AG, Basal, Switzerland). […] Values for Kᵢ are reported as the geometric mean, with error expressed as the standard error of the mean (SEM) and n is equal to the number of independent replicates (determined in assays performed on different days). Geometric Means are calculated as follows: […]

The target of another assay is T2, human GLP-1 receptor (human, UniProt P43220 24-463).
T2 construct: whole, on cells; also called hGLP-1R; hGLP1R
Kind of assay: [125I]-GLP-1 competition SPA, hGLP-1R membranes. On the procedure: The binding buffer contains 25 mM HEPES, pH 7.4, 2.5 mM CaCl₂, 1 mM MgCl₂, 0.1% (w/v) bacitracin, 0.003% (w/v) TWEEN®-20, and Roche Complete™ Protease Inhibitors without EDTA.
as §1

Numbered stars: 1 amine (or outer) side, 2 acyl side, 3 side chain; on linkers, the order of the positions; unused ones are H or OH. Square brackets hold non-standard residues; d marks the D form. Side chains are listed from the residue outwards. Ends that are not written are not given here. * marks the point of attachment. C18 diacid = O=C(O)CCCCCCCCCCCCCCCCC(=O)*; γGlu = O=C(O)[C@H](CCC(=O)[*:2])N[*:1]; AEEA = NCCOCCOCC(=O)O; Aib = CC(C)(N)C(=O)O

For orientation: Ki means a measure of affinity in units of concentration, obtained from inhibition or displacement.

B1: Example 269 (peptide)
peptide: Y[Aib]EGTFTSDYSILLDEK([AEEA-AEEA-γGlu-C18 diacid])AQ[Aib]AFIEYLIEGG-NH2
modifications: N-terminus assumed
SMILES: CC[C@H](C)[C@H](NC(=O)[C@H](CC(C)C)NC(=O)[C@H](Cc1ccc(O)cc1)NC(=O)[C@H](CCC(=O)O)NC(=O)[C@@H](NC(=O)[C@H](Cc1ccccc1)NC(=O)[C@H](C)NC(=O)C(C)(C)NC(=O)[C@H](CCC(N)=O)NC(=O)[C@H](C)NC(=O)[C@H](CCCCNC(=O)COCCOCCNC(=O)COCCOCCNC(=O)CC[C@H](NC(=O)CCCCCCCCCCCCCCCCC(=O)O)C(=O)O)NC(=O)[C@H](CCC(=O)O)NC(=O)[C@H](CC(=O)O)NC(=O)[C@H](CC(C)C)NC(=O)[C@H](CC(C)C)NC(=O)[C@@H](NC(=O)[C@H](CO)NC(=O)[C@H](Cc1ccc(O)cc1)NC(=O)[C@H](CC(=O)O)NC(=O)[C@H](CO)NC(=O)[C@@H](NC(=O)[C@H](Cc1ccccc1)NC(=O)[C@@H](NC(=O)CNC(=O)[C@H](CCC(=O)O)NC(=O)C(C)(C)NC(=O)[C@@H](N)Cc1ccc(O)cc1)[C@@H](C)O)[C@@H](C)O)[C@@H](C)CC)[C@@H](C)CC)C(=O)N[C@@H](CCC(=O)O)C(=O)NCC(=O)NCC(N)=O
As to B1, the Ki in the assay with human GIP receptor worked out at 0.152 nM; in the assay with human GLP-1 receptor it was 7.1 nM.

B2: Example 299 (peptide)
peptide: Y[Aib]EGTFTSDYSILLDKK([AEEA-AEEA-γGlu-C18 diacid])AQ[Aib]AFLEYLIEGGPSSG-NH2
modifications: N-terminus assumed
SMILES: CC[C@H](C)[C@H](NC(=O)[C@H](CC(C)C)NC(=O)[C@H](Cc1ccc(O)cc1)NC(=O)[C@H](CCC(=O)O)NC(=O)[C@H](CC(C)C)NC(=O)[C@H](Cc1ccccc1)NC(=O)[C@H](C)NC(=O)C(C)(C)NC(=O)[C@H](CCC(N)=O)NC(=O)[C@H](C)NC(=O)[C@H](CCCCNC(=O)COCCOCCNC(=O)COCCOCCNC(=O)CC[C@H](NC(=O)CCCCCCCCCCCCCCCCC(=O)O)C(=O)O)NC(=O)[C@H](CCCCN)NC(=O)[C@H](CC(=O)O)NC(=O)[C@H](CC(C)C)NC(=O)[C@H](CC(C)C)NC(=O)[C@@H](NC(=O)[C@H](CO)NC(=O)[C@H](Cc1ccc(O)cc1)NC(=O)[C@H](CC(=O)O)NC(=O)[C@H](CO)NC(=O)[C@@H](NC(=O)[C@H](Cc1ccccc1)NC(=O)[C@@H](NC(=O)CNC(=O)[C@H](CCC(=O)O)NC(=O)C(C)(C)NC(=O)[C@@H](N)Cc1ccc(O)cc1)[C@@H](C)O)[C@@H](C)O)[C@@H](C)CC)C(=O)N[C@@H](CCC(=O)O)C(=O)NCC(=O)NCC(=O)N1CCC[C@H]1C(=O)N[C@@H](CO)C(=O)N[C@@H](CO)C(=O)NCC(N)=O
For the molecule B2, the Ki in the assay with human GIP receptor was determined as 0.734 nM; with human GLP-1 receptor it was 54.3 nM.

B3: Example 320 (peptide)
peptide: Y[Aib]EGTFTSDYSILLDKK([AEEA-AEEA-γGlu-C18 diacid])AQ[Aib]DFIEYLIEGGPSSG-NH2
modifications: N-terminus assumed
SMILES: CC[C@H](C)[C@H](NC(=O)[C@H](CC(C)C)NC(=O)[C@H](Cc1ccc(O)cc1)NC(=O)[C@H](CCC(=O)O)NC(=O)[C@@H](NC(=O)[C@H](Cc1ccccc1)NC(=O)[C@H](CC(=O)O)NC(=O)C(C)(C)NC(=O)[C@H](CCC(N)=O)NC(=O)[C@H](C)NC(=O)[C@H](CCCCNC(=O)COCCOCCNC(=O)COCCOCCNC(=O)CC[C@H](NC(=O)CCCCCCCCCCCCCCCCC(=O)O)C(=O)O)NC(=O)[C@H](CCCCN)NC(=O)[C@H](CC(=O)O)NC(=O)[C@H](CC(C)C)NC(=O)[C@H](CC(C)C)NC(=O)[C@@H](NC(=O)[C@H](CO)NC(=O)[C@H](Cc1ccc(O)cc1)NC(=O)[C@H](CC(=O)O)NC(=O)[C@H](CO)NC(=O)[C@@H](NC(=O)[C@H](Cc1ccccc1)NC(=O)[C@@H](NC(=O)CNC(=O)[C@H](CCC(=O)O)NC(=O)C(C)(C)NC(=O)[C@@H](N)Cc1ccc(O)cc1)[C@@H](C)O)[C@@H](C)O)[C@@H](C)CC)[C@@H](C)CC)C(=O)N[C@@H](CCC(=O)O)C(=O)NCC(=O)NCC(=O)N1CCC[C@H]1C(=O)N[C@@H](CO)C(=O)N[C@@H](CO)C(=O)NCC(N)=O
Consider B3, for which the Ki turned out to be 0.136 nM with human GIP receptor and 5.17 nM with human GLP-1 receptor.

These data come from patent US20200024322A1 (Eli Lilly, published 2020).
